From publication PMC7143960, “Protein Engineering of a Pyridoxal-5′-Phosphate-Dependent L-Aspartate-α-Decarboxylase from Tribolium castaneum for β-Alanine Production” (Molecules, 2020)

Experiments:
[1] = target: T1, TcPanD (PLP-dependent L-aspartate-α-decarboxylase) (Tribolium castaneum, UniProt A7U8C7); test: enzyme activity versus added PLP; type: biochemical; conditions: 0.1 M phosphate pH 7.0, 37 °C, L-aspartate substrate
T1 sequence (A7U8C7 1-540): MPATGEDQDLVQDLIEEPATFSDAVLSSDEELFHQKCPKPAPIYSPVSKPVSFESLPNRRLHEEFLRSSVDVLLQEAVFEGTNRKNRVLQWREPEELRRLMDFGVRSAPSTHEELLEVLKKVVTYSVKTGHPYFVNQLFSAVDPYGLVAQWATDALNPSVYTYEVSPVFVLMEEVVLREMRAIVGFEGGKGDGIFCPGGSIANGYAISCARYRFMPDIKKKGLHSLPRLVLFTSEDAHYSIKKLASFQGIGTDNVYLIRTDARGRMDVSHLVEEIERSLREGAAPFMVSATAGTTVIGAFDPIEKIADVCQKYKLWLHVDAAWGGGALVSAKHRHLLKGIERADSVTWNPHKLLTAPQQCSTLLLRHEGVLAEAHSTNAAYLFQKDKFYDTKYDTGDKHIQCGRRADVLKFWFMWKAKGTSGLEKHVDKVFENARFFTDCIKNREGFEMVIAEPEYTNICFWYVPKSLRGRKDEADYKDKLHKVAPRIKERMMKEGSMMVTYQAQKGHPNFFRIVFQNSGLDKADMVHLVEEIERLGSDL

N[C@@H](CC(=O)O)C(=O)O = test: purified protein; type: biochemical, Tribolium castaneum; conditions: 0.1 M phosphate pH 7.0, 37 °C, L-aspartate 0.5-100 mM, apparent parameters
purified protein = substrate: N[C@@H](CC(=O)O)C(=O)O; test: purified protein; conditions: 0.1 M phosphate pH 7.0, 37 °C, L-aspartate 0.5-100 mM, apparent parameters

Cc1ncc(COP(=O)(O)O)c(C=O)c1O [pyridoxal 5’-phosphate]
enzyme activity versus added PLP [1]: the enzymatic activities of the two proteins reached the highest levels under the treatment

TcPanD (PLP-dependent L-aspartate-α-decarboxylase) (Tribolium castaneum; K305S/R98H)
Km (N[C@@H](CC(=O)O)C(=O)O): 1230 µM
Vmax (N[C@@H](CC(=O)O)C(=O)O): 7.05 µmol/min/mg
kcat (N[C@@H](CC(=O)O)C(=O)O): 7.64 s⁻¹
kcat/Km (N[C@@H](CC(=O)O)C(=O)O): 6210 M⁻¹ s⁻¹

B1: TcPanD (PLP-dependent L-aspartate-α-decarboxylase) (Tribolium castaneum) (protein)
chain: MPATGEDQDLVQDLIEEPATFSDAVLSSDEELFHQKCPKPAPIYSPVSKPVSFESLPNRRLHEEFLRSSVDVLLQEAVFEGTNRKNRVLQWREPEELRRLMDFGVRSAPSTHEELLEVLKKVVTYSVKTGHPYFVNQLFSAVDPYGLVAQWATDALNPSVYTYEVSPVFVLMEEVVLREMRAIVGFEGGKGDGIFCPGGSIANGYAISCARYRFMPDIKKKGLHSLPRLVLFTSEDAHYSIKKLASFQGIGTDNVYLIRTDARGRMDVSHLVEEIERSLREGAAPFMVSATAGTTVIGAFDPIEKIADVCQKYKLWLHVDAAWGGGALVSAKHRHLLKGIERADSVTWNPHKLLTAPQQCSTLLLRHEGVLAEAHSTNAAYLFQKDKFYDTKYDTGDKHIQCGRRADVLKFWFMWKAKGTSGLEKHVDKVFENARFFTDCIKNREGFEMVIAEPEYTNICFWYVPKSLRGRKDEADYKDKLHKVAPRIKERMMKEGSMMVTYQAQKGHPNFFRIVFQNSGLDKADMVHLVEEIERLGSDL
Km (purified protein): 1350 µM
Vmax (purified protein): 2.88 µmol/min/mg
kcat (purified protein): 3.12 s⁻¹
kcat/Km (purified protein): 2310 M⁻¹ s⁻¹
